# Assay results from publication PMC4168779.
# Target: Z protein fused to maltose binding protein, MBP-Z(N6C)
# Assay: cross-linking
row,PEPC efficiency (cross-linking efficiency) [%],Substance
1,73,"ZSPA affibody (Afb) with BrC6K at site 36, Afb(D36BrC6K) (designed binder)"
2,57,ZSPA affibody (Afb) with BetY at site 36 (designed binder)
3,66,ZSPA affibody (Afb) with IetY at site 36 (designed binder)
